Test results: patent US20200170258A1

Tests used:
[1] = molecular target: FLS2 receptor of Arabidopsis thaliana (Arabidopsis thaliana) (UniProt Q9FL28); experiment: cell-based or functional assay
[2] = molecular target: … SENSING 2 (FLS2) of soybean (soybean); experiment: cell-based or functional assay

Sequence of FLS2 receptor of Arabidopsis thaliana (Arabidopsis thaliana) (Q9FL28 24-1173): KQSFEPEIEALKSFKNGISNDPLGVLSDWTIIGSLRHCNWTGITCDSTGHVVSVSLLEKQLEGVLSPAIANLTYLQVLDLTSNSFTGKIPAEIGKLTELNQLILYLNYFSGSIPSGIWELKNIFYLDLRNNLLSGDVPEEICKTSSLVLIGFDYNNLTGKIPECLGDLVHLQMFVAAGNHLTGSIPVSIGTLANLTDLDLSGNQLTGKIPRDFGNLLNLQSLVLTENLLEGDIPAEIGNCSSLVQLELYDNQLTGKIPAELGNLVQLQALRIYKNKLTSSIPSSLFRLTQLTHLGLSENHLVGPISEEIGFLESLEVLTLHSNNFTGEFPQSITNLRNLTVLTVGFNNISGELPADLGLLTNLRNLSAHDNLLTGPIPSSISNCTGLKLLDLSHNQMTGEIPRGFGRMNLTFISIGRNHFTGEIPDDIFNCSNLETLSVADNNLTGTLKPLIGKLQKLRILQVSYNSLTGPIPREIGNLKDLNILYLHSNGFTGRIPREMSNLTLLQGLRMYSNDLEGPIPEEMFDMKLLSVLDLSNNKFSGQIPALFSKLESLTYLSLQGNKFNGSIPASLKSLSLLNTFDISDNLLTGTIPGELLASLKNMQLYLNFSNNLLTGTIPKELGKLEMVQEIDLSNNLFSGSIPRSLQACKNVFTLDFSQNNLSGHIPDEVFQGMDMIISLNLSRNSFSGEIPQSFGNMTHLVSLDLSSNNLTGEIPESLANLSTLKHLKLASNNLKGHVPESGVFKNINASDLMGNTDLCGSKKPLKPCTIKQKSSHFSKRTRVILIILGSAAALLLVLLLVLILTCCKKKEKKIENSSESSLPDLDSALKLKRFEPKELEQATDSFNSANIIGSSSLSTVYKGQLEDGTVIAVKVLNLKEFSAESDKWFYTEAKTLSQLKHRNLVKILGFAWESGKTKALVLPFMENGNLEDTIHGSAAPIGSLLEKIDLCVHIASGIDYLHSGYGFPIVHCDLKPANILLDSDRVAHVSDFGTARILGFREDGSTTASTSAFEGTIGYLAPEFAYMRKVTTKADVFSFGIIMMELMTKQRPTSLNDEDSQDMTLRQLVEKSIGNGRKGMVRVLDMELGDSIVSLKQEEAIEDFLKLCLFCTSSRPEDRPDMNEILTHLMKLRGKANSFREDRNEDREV

Binder	ROS activity in Arabidopsis leaf tissue, Average RLU value, 100 nM [1] [RLU]	ROS activity in Arabidopsis leaf tissue, fold increase over mock treatment, 100 nM [1] [fold]	% Activity (compared to unmodified Bt.4Q7Flg22), soybean ROS assay [2] [%]
DRLSSGKRINSASDDAAGLAIA [Bt.4Q7Flg22]	258000	3.1	100
Ac-DRLSSGKRINSASDDAAGLAIA-NH2 [Bt.4Q7Flg22 Mod-1]			106
